Data on one molecule can be found in patent US20190153113A1, “CD39 VASCULAR ISOFORM TARGETING AGENTS” (INNATE PHARMA, priority 2015, published 2019).

Experiment [1] concerns the target T1, CD39-L2 (Homo sapiens, UniProt O75354, K202E).
T1 sequence (O75354 1-484 K202E): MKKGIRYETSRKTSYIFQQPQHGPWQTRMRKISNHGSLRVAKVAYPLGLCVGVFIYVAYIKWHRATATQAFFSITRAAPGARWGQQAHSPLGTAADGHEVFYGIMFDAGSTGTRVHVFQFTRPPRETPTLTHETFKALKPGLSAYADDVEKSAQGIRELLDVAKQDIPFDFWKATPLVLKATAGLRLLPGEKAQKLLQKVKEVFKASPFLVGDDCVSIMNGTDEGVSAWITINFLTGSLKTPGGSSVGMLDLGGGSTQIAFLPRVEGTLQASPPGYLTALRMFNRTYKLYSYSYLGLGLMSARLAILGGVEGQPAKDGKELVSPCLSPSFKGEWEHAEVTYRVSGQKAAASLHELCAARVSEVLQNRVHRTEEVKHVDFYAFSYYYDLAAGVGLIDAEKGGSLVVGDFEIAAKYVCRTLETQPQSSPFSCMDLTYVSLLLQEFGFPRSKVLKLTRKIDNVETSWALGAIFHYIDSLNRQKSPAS
Briefly: ELISA titration on recombinant human CD39 isoforms. It is filed as binding. The conditions noted are these: recombinant protein coated. As for the experimental part: (§1) Wells were washed in TBS Tween 20, and further saturated 2H at RT in TBS Blocking buffer. Dose range concentration of primary antibody was incubated in TBS blocking buffer for 2h at RT. Wells were washed in TBS Tween 20. […] Optical density was measured on Enspire at OD=450.
Background: In an ELISA, binding on a coated surface is turned into a signal by an enzyme label.

Experiment [2] concerns the target T2, CD39-L3 (Homo sapiens, UniProt O75355).
T2 sequence (O75355 1-529): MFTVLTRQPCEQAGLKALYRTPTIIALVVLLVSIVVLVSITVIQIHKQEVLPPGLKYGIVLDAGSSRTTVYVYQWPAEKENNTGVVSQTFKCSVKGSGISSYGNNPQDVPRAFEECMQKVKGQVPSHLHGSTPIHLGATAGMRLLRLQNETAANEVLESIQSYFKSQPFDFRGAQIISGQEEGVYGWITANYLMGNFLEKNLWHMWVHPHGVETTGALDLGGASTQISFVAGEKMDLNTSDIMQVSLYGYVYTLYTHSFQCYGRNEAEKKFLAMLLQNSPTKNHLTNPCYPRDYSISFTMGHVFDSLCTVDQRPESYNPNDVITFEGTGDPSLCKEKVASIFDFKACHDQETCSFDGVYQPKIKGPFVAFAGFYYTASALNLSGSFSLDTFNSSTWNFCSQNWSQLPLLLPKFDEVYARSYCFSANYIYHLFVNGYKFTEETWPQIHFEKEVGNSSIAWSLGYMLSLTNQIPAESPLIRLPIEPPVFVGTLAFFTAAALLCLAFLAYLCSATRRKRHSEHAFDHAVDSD
Briefly: ELISA titration on recombinant human CD39 isoforms. In kind it is binding. To be noted: recombinant protein coated. As to the method: as §1

Experiment [3] deals with T3, CD39-L4 (Homo sapiens, UniProt O75356).
T3 sequence (O75356 25-428): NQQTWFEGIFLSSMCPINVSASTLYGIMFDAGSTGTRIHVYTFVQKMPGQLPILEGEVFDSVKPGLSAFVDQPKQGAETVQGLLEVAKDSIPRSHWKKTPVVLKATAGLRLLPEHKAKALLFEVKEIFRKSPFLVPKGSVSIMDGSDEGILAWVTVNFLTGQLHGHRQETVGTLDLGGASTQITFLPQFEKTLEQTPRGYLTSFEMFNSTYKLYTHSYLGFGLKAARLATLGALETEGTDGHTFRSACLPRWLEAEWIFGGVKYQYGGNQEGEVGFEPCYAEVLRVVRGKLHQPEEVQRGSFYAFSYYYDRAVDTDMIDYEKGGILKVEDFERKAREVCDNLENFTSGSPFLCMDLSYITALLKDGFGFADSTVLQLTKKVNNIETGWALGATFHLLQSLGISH
Kind of experiment: ELISA titration on recombinant human CD39 isoforms. In kind it is binding. The conditions noted are these: recombinant protein coated. As to the method:
as §1

Experiment [4] deals with T4, vascular CD39 (Homo sapiens, UniProt P49961).
T4 construct: recombinant human CD39-M2 extracellular domain recombinant protein; made in house; host or cells: CHO cells (secreted, purified from supernatant)
T4 sequence (P49961 38-478 limits assumed): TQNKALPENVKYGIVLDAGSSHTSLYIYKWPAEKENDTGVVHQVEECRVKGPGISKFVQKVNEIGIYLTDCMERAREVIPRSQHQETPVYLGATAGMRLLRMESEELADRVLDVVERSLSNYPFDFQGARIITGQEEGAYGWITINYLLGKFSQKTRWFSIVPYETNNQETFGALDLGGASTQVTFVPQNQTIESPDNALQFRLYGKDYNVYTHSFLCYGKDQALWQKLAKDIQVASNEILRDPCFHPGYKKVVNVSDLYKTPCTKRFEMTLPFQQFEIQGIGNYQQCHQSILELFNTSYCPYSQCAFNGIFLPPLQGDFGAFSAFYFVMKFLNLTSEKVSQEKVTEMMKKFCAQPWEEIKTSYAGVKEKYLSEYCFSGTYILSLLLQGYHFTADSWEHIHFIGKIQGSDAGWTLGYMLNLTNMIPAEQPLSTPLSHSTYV
Kind of experiment: ELISA titration on recombinant human CD39 isoforms. In kind it is binding. The conditions noted are these: recombinant protein coated. As to the method: as §1

Experiment [5] addresses T5, human CD39 at cell surface (Homo sapiens, UniProt P49961).
T5 construct: cells that endogenously express CD39 at their surface, e.g. regulatory T (TReg) cells, B cells, cancer cells, lymphoma cells (e.g. Ramos cells); endogenous in cells; host or cells: Ramos human lymphoma cells
T5 sequence (P49961 1-510): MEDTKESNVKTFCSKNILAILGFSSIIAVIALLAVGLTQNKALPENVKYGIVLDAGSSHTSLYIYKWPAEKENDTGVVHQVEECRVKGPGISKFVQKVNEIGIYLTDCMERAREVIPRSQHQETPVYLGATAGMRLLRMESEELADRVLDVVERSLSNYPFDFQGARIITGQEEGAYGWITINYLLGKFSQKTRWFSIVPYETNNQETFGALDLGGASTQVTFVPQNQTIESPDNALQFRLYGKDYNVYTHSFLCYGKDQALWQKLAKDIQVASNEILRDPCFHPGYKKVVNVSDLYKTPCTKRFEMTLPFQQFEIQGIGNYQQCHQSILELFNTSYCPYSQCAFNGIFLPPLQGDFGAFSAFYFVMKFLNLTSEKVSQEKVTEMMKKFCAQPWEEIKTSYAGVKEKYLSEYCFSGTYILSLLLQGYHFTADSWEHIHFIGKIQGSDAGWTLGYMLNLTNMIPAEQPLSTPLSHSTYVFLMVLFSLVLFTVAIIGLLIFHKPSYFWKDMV
Kind of experiment: CD39 down-modulation / internalization on Ramos cells. In kind it is cell-based. To be noted: Ramos human lymphoma cells, 10 μg/ml, 4° C. or 37° C.

B1: I-392: anti-CD39 antibody, VH SEQ ID NO: 8 and VL SEQ ID NO: 9, chimeric human IgG1 with N297Q mutation (antibody, V domains shown)
VH: QIQLVQSGPEVKKPRETVKISCKASGYTFTHYGMNWVKQAPGKGLKWMGWINTYTGEPTYADDFKGRFAFSLEASASTAYLQINNLKNEDTATYFCARRRYEGNYVFYYFDYWGQGTTLTVSS
VL: DIQMTQSPASLSASVGETVTITCRASENIYSYFSWYQQKQGKSPQLLVYTAKTLAEGVPSRFSGSGSGTQFSLKINSLQPEDFGSYYCQHHYVTPYTFGGGTKLEIK
With B1, in experiment [1], the “binding to CD39-L2” value is “not to any of the CD39 isoforms”. For the same molecule, the “binding to CD39-L3” value in experiment [2] is reported as “not to any of the CD39 isoforms”. The “binding to CD39-L4” value in experiment [3] is “not to any of the CD39 isoforms”. Also, the “binding to vascular CD39” value in experiment [4] is “bound to the vascular CD39”. The “CD39 down modulation / internalization” value in experiment [5] was “do not induce CD39 down modulation nor CD39 internalization”.
